Target: the molecule itself
Test: crystal structure

B1: MmOmeRS, C-terminal catalytic domain (residues 185-454) of the evolved Methanosarcina mazei pyrrolysyl-tRNA synthetase (enzyme, UniProt Q8PWY1 185-454, looked up)
chain: ASAPALTKSQTDRLEVLLNPKDEISLNSGKPFRELESELLSRRKKDLQQIYAEERENYLGKLEREITRFFVDRGFLEIKSPILIPLEYIERMGIDNDTELSKQIFRVDKNFCLRPMLTPNLYNYLRKLDRALPDPIKIFEIGPCYRKESDGKEHLEEFTMLVFWQMGSGCTRENLESIITDFLNHLGIDFKIVGDSCMVFGDTLDVMHGDLELSSALVGPIPLDREWGIDKPWIGAGFGLERLLKVKHDFKNIKRAARSESYYNGISTNL
- binding result: binds
